The target in the assay is T1, BMP-2 (Homo sapiens, UniProt P12643).
T1 construct: Genetics Institute, Cambridge, Mass; (gift)
T1 sequence (P12643 283-396): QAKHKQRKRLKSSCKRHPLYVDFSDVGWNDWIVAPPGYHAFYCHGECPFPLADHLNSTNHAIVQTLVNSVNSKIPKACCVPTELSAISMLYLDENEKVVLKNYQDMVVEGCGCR
Kind of assay: BIAcore surface plasmon resonance, binding to immobilized BMP-2. The following applies: Table 2 (calculations repeated); ligand BMP-2. The procedure:
In this system, a purified protein serving as the ligand is covalently coupled to a carboxymethylated dextran surface, and binding molecules (i.e. the analyte) are passed in a fluid phase across the surface. Binding of the analyte to ligand causes a change in reflected light which is directly proportional to mass bound, and is measured in arbitrary response units (R.U.). Analyte-ligand binding is observed as both increasing response with time during the injection of analyte, and the difference in the position of the baseline before and after injection.
Schuster, R. V. Swanson, L. A. Alex, R. B. Bourret, M. I. Simon, Nature 365, 343 (1993). 1000 R.U. equals approximately 1 ng/mm^2. The running buffer was 20 mM Hepes (pH 7.2), 150 mM NaCl and the flow rate for all sensorgrams was 3 μl/min.
Regeneration of the surface to remove bound analyte was done by injection of 10 μl of 20 mM NaOH. To cyclize TRH1 peptides, the material was reduced with 5 mM DTT then brought to a final concentration of 60 μM in 25 mM ammonium acetate (pH 8.5). […]
Data was analyzed using the BIA-evaluation software (Pharmacia Biosensor). The association rate constant, kass, was calculated by first plotting the change in response with time versus response (i.e. dR/dT vs R). […] The affinity constants were calculated from KD =kdiss /kass. […]

B1: h-Fetuin: adult human fetuin/α2-HS glycoprotein (Calbiochem) (protein)
chain: APHGPGLIYRQPNCDDPETEEAALVAIDYINQNLPWGYKHTLNQIDEVKVWPQQPSGELFEIEIDTLETTCHVLDPTPVARCSVRQLKEHAVEGDCDFQLLKLDGKFSVVYAKCDSSPDSAEDVRKVCQDCPLLAPLNDTRVVHAAKAALAAFNAQNNGSNFQLEEISRAQLVPLPPSTYVEFTVSGTDCVAKEATEAAKCNLLAEKQYGFCKATLSEKLGGAEVAVTCMVFQTQPVSSQPQPEGANEAVPTPVVDPDAPPSPPLGAPGLPPAGSPPDSHVLLAAPPGHQLHRAHYDLRHTFMGVVSLGSPSGEVSHPRKTRTVVQPSVGAAAGPVVPPCPGRIRHFKV
As to B1, the kass is 22000 ± 5000 M⁻¹ s⁻¹.

The record behind these values is patent US5981483A, “Compositions comprising modulators of cytokines of the TGF-β superfamily” (Mount Sinai Hospital Corporation, priority 1997, dated 1999).
